The source of these data is the supplement of paper PMC7125110.

First the molecules themselves.
B1: glmS ribozyme (parent)
chain: AUAAAAGCGCCAGAACUACAGAAAUGUAGUUGACGAGGAGGAGGUUUAUCGAAUUUUCGGCGGAUGCCUCCAAA

± gives the standard error. Fewer inactive variants are shown than the library holds.

Holding throughout (settings): with glucosamine-6-phosphate
In data set [1] the parent is B1. In words: self-cleavage kobs at 160 uM GlcN6P; higher = faster cleavage; RNA array. In short, it runs like this:
(§1)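 kcat and KM were obtained from weighted Michaelis–Menten fits across concentrations of kobs values. Those came from one- or two-exponential decay fits to per-tile medians normalised to baseline and to non-cleaving reference variants. The variants were barcoded ribozymes transcribed in situ by E. coli RNA polymerase on sequenced MiSeq chips and tracked through a hybridised Cy3 probe at 37 °C, with 40 μM to 10 mM glucosamine-6-phosphate in HEPES/KCl/Mg(OAc)2 buffer flowed in.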

In data set [2] the parent is B1. In words: self-cleavage kobs at 640 uM GlcN6P; higher = faster cleavage; RNA array. Summed up: as §1
Variants of B1 are the subject of data set [3]. The data set is described as follows: self-cleavage kobs at 2500 uM GlcN6P; higher = faster cleavage; RNA array. In short, it runs like this: as §1
Data set [4] covers variants of B1. The data set is described as follows: self-cleavage kobs at 10000 uM GlcN6P; higher = faster cleavage; RNA array. In short, it runs like this:
as §1

For AUAAAAGCGCCAGAACUACAGAAAUGUAGCGGACGAGGAGGAGGUUUAUGGAAUUUUCGGCGGAUGCCUGCAAA [U30C U31G C50G C70G], the “self-cleavage kobs at 160 uM GlcN6P” value with glucosamine-6-phosphate [1] turned out to be 0.000158 ± 4.4e-05 s⁻¹. Moreover, the “self-cleavage kobs at 640 uM GlcN6P” value in the data set with glucosamine-6-phosphate [2] was 0.000289 ± 0.0001 s⁻¹. For the same variant, in the data set with glucosamine-6-phosphate [3], the “self-cleavage kobs at 2500 uM GlcN6P” value stood at 0.00026 ± 5.8e-05 s⁻¹.
As for AUAAAAGCGCCAGAACUACAGAAAUGUAGUUGACGAGGAGGAUGUUUAUCGAAUUUACGGCGGAUGCCUCCAAA [G43U U57A], the “self-cleavage kobs at 160 uM GlcN6P” value with glucosamine-6-phosphate [1] is less than 1e-05 s⁻¹. Also, the “self-cleavage kobs at 2500 uM GlcN6P” value with glucosamine-6-phosphate [3] was less than 1e-05 s⁻¹.
Consider AUAAAAGCGCCAGAGCUACAGAAAUGUAGUUGACGAGGAGGAGGUUUAUCGAAUGUUCGGCGGAUGCCUCGAAA [A15G U55G C71G], for which the “self-cleavage kobs at 160 uM GlcN6P” value in the data set with glucosamine-6-phosphate [1] is 0.00025 ± 5.3e-05 s⁻¹. Moreover, the “self-cleavage kobs at 640 uM GlcN6P” value with glucosamine-6-phosphate [2] was 0.000408 ± 9.6e-05 s⁻¹. In addition, in the data set with glucosamine-6-phosphate [3], the “self-cleavage kobs at 2500 uM GlcN6P” value worked out at 0.000866 ± 0.00028 s⁻¹.
Take AUAAAAGCGCCAGAACUACAGAAAUGUAGUUGACGAGGAGGAGGUUUAUCUAAUUUUCGGCGGUUGCCUCCAAA [G51U A64U]: the “self-cleavage kobs at 160 uM GlcN6P” value with glucosamine-6-phosphate [1] was less than 1e-05 s⁻¹. Moreover, the “self-cleavage kobs at 640 uM GlcN6P” value in the data set with glucosamine-6-phosphate [2] is less than 1e-05 s⁻¹. In addition, the “self-cleavage kobs at 2500 uM GlcN6P” value with glucosamine-6-phosphate [3] was less than 1e-05 s⁻¹. For the same variant, the “self-cleavage kobs at 10000 uM GlcN6P” value in the data set with glucosamine-6-phosphate [4] is less than 1e-05 s⁻¹.
For AUAAAAGCGCCAGGACUACAGAAAUGUAGUUGACAAGGAGGAGGUUCAUCGAAUUUUCGGCGGAUGACUCCAAA [A14G G35A U47C C67A], the “self-cleavage kobs at 160 uM GlcN6P” value in the data set with glucosamine-6-phosphate [1] is less than 1e-05 s⁻¹. Further, the “self-cleavage kobs at 640 uM GlcN6P” value with glucosamine-6-phosphate [2] is less than 1e-05 s⁻¹.
Regarding AUAAAAGCGCCAGAACUACAGAAAUGUAGUUGACGAGUAGGAGGUUUAUCGAAUUCUCGGCGGAAGCCUCCAAA [G38U U56C U65A], the “self-cleavage kobs at 160 uM GlcN6P” value in the data set with glucosamine-6-phosphate [1] is less than 1e-05 s⁻¹. In the data set with glucosamine-6-phosphate [3], the “self-cleavage kobs at 2500 uM GlcN6P” value was less than 1e-05 s⁻¹. In addition, in the data set with glucosamine-6-phosphate [4], the “self-cleavage kobs at 10000 uM GlcN6P” value is less than 1e-05 s⁻¹.
Regarding AUAAAAGCGCCAAAACUACAGAAAUGUAGUUGACGAGGAGGAGGUUUAUCGAAUUUUCGGCGGAUGUCUCCAAA [G13A C67U], the “self-cleavage kobs at 160 uM GlcN6P” value with glucosamine-6-phosphate [1] turned out to be 2.9e-05 ± 1.4e-05 s⁻¹. Moreover, the “self-cleavage kobs at 640 uM GlcN6P” value with glucosamine-6-phosphate [2] turned out to be 4.93e-05 ± 8.8e-06 s⁻¹. The “self-cleavage kobs at 2500 uM GlcN6P” value in the data set with glucosamine-6-phosphate [3] stood at 0.000122 ± 1.2e-05 s⁻¹. The “self-cleavage kobs at 10000 uM GlcN6P” value with glucosamine-6-phosphate [4] is 0.000405 ± 9e-05 s⁻¹.
On to AUAAAAGCGCCAGAACUACAGAAAUGUAGUUGAUGAGGAGGAGGUUUAGCGUAUUUUCGGCGGAUGCCUCCAAA [C34U U49G A52U], for which the “self-cleavage kobs at 160 uM GlcN6P” value in the data set with glucosamine-6-phosphate [1] is less than 1e-05 s⁻¹. Further, the “self-cleavage kobs at 2500 uM GlcN6P” value with glucosamine-6-phosphate [3] was less than 1e-05 s⁻¹. Moreover, the “self-cleavage kobs at 10000 uM GlcN6P” value with glucosamine-6-phosphate [4] was less than 1e-05 s⁻¹.
As for AUAAAAGCGCCAGAACUACAGAAAUGUAGUUGACGAGAAGGGGGUUUAUCGAAUUUUCGACGGAUGCCUCCAAA [G38A A42G G60A], the “self-cleavage kobs at 160 uM GlcN6P” value in the data set with glucosamine-6-phosphate [1] is less than 1e-05 s⁻¹.
Consider AUAAAAGCGCCAGAACUACAGAAAUGUAGUUGACGAGGGGGUGGUUUAUCGAAUUUUCGGCGGCUGCCUCCAAA [A39G A42U A64C], for which the “self-cleavage kobs at 160 uM GlcN6P” value with glucosamine-6-phosphate [1] is less than 1e-05 s⁻¹. Besides, in the data set with glucosamine-6-phosphate [2], the “self-cleavage kobs at 640 uM GlcN6P” value was less than 1e-05 s⁻¹. In addition, the “self-cleavage kobs at 2500 uM GlcN6P” value with glucosamine-6-phosphate [3] was less than 1e-05 s⁻¹.
Turning to AUAAAAGCGCCGGAACUACAGAAAUGUAGUUGACGAGGAAGAGGUUUAUCGAAUUUUCGGUGGAUGCCUCCAAA [A12G G40A C61U], the “self-cleavage kobs at 160 uM GlcN6P” value in the data set with glucosamine-6-phosphate [1] is less than 1e-05 s⁻¹.
Regarding AUAAAAGCCCCAGAUCUACAGAAAUGUAGUUGACGAGGAGGAUGUUUAUCGAAUUUUCGGCGGAUGCCUCCAAA [G9C A15U G43U], the “self-cleavage kobs at 160 uM GlcN6P” value in the data set with glucosamine-6-phosphate [1] is less than 1e-05 s⁻¹. Further, the “self-cleavage kobs at 640 uM GlcN6P” value with glucosamine-6-phosphate [2] is less than 1e-05 s⁻¹. Moreover, the “self-cleavage kobs at 2500 uM GlcN6P” value with glucosamine-6-phosphate [3] was less than 1e-05 s⁻¹.
On to AUAAAAGCGCCACAACUACAGAAAUGUAGUUGAGCAGGAGGAUGUUUCUCGAAUUUUCGGCGGAUGGCUUCAAA [G13C C34G G35C G43U A48C C67G C70U], for which the “self-cleavage kobs at 160 uM GlcN6P” value with glucosamine-6-phosphate [1] is less than 1e-05 s⁻¹. Further, the “self-cleavage kobs at 640 uM GlcN6P” value in the data set with glucosamine-6-phosphate [2] was less than 1e-05 s⁻¹.
With AUAAAAGCGCCAGAACUACAGAAAUGUAGUUGACGAGGAGGAGGUUUAUCGAAUUUCCGGCGAAUGCCUCCAAA [U57C G63A], in the data set with glucosamine-6-phosphate [1], the “self-cleavage kobs at 160 uM GlcN6P” value is less than 1e-05 s⁻¹. In addition, the “self-cleavage kobs at 640 uM GlcN6P” value in the data set with glucosamine-6-phosphate [2] is less than 1e-05 s⁻¹. Besides, the “self-cleavage kobs at 2500 uM GlcN6P” value in the data set with glucosamine-6-phosphate [3] is less than 1e-05 s⁻¹. In the data set with glucosamine-6-phosphate [4], the “self-cleavage kobs at 10000 uM GlcN6P” value is less than 1e-05 s⁻¹.
